Common to all, as to assay: co-sedimentation
In test [1] the target is actin (mol wt = 43,000), platelet (human (endogenous in platelets)) (UniProt P60709).
Test [2] shares this target. The source holds these as a separate data set.
The target is the same in test [3]. This is another data set of the same source.
The target is the same in test [4]. The source holds these as a separate data set.

Like-named read-outs stand apart in the source and are kept apart here.

platelet membrane glycoprotein IIb (receptor), sequence (P08514 32-1039): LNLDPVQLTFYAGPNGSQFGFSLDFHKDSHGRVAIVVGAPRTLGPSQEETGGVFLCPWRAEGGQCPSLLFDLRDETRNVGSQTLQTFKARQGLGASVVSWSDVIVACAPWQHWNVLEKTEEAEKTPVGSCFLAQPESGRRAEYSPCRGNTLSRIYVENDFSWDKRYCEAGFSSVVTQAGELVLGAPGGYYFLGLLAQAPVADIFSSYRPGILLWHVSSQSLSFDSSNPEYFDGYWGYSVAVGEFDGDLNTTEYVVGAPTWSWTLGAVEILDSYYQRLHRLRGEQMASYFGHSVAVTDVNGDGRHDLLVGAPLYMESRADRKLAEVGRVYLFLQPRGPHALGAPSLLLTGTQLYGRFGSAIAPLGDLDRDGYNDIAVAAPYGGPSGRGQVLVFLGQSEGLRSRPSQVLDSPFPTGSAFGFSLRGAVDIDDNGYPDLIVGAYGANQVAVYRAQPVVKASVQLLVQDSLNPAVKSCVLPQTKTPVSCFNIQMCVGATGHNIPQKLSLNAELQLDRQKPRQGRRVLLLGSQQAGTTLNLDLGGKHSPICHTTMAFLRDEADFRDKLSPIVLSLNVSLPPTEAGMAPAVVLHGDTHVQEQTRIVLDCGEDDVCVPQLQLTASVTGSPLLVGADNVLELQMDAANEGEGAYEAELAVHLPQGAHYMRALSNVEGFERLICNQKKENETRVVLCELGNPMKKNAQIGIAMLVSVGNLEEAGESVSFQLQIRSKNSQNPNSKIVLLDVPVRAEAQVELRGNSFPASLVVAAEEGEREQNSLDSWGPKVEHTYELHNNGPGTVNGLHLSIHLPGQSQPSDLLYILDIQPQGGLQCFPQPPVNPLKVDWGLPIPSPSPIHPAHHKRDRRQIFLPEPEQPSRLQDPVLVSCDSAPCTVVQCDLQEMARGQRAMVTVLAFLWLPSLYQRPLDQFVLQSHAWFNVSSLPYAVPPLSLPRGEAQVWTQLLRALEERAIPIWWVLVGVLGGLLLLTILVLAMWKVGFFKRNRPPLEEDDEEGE
platelet membrane glycoprotein III, sequence (P05106 27-788): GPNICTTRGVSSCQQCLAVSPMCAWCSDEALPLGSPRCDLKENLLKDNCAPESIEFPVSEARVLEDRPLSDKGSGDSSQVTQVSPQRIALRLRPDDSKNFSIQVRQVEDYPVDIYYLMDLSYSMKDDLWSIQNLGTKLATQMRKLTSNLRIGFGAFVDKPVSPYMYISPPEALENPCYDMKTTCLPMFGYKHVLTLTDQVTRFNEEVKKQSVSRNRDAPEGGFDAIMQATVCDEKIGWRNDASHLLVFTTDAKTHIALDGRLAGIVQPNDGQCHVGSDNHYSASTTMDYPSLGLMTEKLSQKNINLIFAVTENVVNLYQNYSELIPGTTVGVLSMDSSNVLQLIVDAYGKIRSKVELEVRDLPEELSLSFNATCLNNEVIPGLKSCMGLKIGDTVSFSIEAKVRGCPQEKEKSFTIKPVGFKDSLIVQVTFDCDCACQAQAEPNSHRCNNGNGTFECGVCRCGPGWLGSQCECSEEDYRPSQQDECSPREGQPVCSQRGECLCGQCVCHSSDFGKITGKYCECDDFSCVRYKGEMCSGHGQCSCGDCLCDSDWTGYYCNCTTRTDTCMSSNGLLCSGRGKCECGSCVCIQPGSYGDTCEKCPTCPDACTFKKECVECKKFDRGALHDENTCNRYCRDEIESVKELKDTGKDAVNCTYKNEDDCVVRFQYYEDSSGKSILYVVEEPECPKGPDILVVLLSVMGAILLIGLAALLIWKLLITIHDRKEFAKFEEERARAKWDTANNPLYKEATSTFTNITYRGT

As for “255,000 protein (actin-binding protein), platelet (from UniProt P21333 1-2647) (natural protein)”, the percent of the protein in the Triton residue in test [1] is 34.5%; in test [2], 55.2%.

Regarding “platelet membrane glycoprotein III (from UniProt P05106 27-788) (receptor)”, the percent of the glycoprotein in the Triton residue in test [3] turned out to be 2.4%; in test [1], 3.4%; in test [2], 14.3%.

Consider “platelet membrane glycoprotein IIb (receptor)”, for which the percent of the glycoprotein in the Triton residue came out at 5.4% in test [3], 7.2% in test [1], 3.7% in test [4] and 26.1% in test [2].

For the origin of these results see article PMC2110644.
